Measured values as given in PMC12508434.

B1: P1-CN crRNA (structured_RNA)
RNA: UAAUUUCUACUAAGUGUAGAUAACCUGAUCAAGAUACCCAA
B2: P1-F1 crRNA (structured_RNA)
RNA: CAAUGUCUACUAAGUGUAGAUAACCUGAUCAAGAUACCCAA
B3: P1-L1 crRNA (structured_RNA)
RNA: UAAUUUCUACAAAACGUAGAUAACCUGAUCAAGAUACCCAA
B4: P1-FL1 crRNA (structured_RNA)
RNA: CAAUGUCUACUCAGCGUAGAUAACCUGAUCAAGAUACCCAA
B5: P1-F2 crRNA (structured_RNA)
RNA: GAAUGUCUACUAAGUGUAGAUAACCUGAUCAAGAUACCCAA
B6: P1-L2 crRNA (structured_RNA)
RNA: UAAUUUCUACUCAGCGUAGAUAACCUGAUCAAGAUACCCAA
B7: P1-FL2 crRNA (structured_RNA)
RNA: GAAUGUCUACUCAGCGUAGAUAACCUGAUCAAGAUACCCAA
B8: P1-CN crRNA + P1 target dsDNA (mixed)
RNA: UAAUUUCUACUAAGUGUAGAUAACCUGAUCAAGAUACCCAA
DNA 1: CTTAGAGTTCTTTAAACCTGATCAAGATACCCAACCAAAC
DNA 2: TGTTGTTTGGTTGGGTATCTTGATCAGGTTTAAAGAACTCTAAG

Tests used:
LbCas12a = LbCas12a (Lachnospiraceae bacterium? (only 'Lb' …, UniProt A0A5S8WF58 1-1228)); test: SPR
[1] = target: dCas12a (DNase-dead; LbCas12a implied) (Lachnospiraceae bacterium? (only 'Lb' …, UniProt A0A5S8WF58 1-1228, D832A); test: EMSA

Row | Binder | binding result (LbCas12a) | binding result [1]
1 | B1 | binds | –
2 | B2 | binds | –
3 | B3 | binds | –
4 | B4 | binds | –
5 | B5 | binds | –
6 | B6 | binds | –
7 | B7 | binds | –
8 | B8 | – | binds
